Reference: patent US20230279064A1

Molecular target: human collagen (Sigma cat. no. C5483) (human)
Assay: ELISA on immobilised human collagen (FIG. 9)

Sequence of human collagen (Sigma cat. no. C5483) (human) (P02452 162-1218, chain 1 of 2): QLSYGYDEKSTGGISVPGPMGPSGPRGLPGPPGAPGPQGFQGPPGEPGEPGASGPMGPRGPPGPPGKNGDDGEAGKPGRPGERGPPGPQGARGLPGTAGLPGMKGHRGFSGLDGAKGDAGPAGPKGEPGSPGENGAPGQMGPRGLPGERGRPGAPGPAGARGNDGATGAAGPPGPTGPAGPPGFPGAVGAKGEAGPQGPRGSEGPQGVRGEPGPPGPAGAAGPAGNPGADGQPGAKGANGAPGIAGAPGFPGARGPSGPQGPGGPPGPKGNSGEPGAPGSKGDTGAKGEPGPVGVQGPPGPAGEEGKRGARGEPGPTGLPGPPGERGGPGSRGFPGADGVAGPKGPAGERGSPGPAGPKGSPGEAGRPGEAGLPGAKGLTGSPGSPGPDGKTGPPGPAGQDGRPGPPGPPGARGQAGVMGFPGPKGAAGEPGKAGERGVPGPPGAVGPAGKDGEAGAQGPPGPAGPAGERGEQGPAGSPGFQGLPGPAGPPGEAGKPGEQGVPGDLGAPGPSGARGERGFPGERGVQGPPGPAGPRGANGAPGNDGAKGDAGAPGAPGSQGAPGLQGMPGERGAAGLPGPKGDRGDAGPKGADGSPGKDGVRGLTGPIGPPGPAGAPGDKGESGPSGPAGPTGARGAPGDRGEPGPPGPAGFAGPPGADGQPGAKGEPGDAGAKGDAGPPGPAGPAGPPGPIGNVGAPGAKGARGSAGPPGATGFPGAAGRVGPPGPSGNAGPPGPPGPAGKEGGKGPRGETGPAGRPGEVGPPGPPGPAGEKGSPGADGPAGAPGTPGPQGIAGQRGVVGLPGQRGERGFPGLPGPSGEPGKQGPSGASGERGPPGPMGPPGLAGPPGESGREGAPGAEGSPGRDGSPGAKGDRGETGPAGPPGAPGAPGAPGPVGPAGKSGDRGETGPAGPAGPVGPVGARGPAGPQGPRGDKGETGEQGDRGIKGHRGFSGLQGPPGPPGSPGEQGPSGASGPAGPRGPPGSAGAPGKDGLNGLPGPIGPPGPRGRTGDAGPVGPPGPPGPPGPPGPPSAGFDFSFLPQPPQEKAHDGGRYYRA
Sequence of human collagen (Sigma cat. no. C5483) (human) (P08123 80-1119, chain 2 of 2, further chain): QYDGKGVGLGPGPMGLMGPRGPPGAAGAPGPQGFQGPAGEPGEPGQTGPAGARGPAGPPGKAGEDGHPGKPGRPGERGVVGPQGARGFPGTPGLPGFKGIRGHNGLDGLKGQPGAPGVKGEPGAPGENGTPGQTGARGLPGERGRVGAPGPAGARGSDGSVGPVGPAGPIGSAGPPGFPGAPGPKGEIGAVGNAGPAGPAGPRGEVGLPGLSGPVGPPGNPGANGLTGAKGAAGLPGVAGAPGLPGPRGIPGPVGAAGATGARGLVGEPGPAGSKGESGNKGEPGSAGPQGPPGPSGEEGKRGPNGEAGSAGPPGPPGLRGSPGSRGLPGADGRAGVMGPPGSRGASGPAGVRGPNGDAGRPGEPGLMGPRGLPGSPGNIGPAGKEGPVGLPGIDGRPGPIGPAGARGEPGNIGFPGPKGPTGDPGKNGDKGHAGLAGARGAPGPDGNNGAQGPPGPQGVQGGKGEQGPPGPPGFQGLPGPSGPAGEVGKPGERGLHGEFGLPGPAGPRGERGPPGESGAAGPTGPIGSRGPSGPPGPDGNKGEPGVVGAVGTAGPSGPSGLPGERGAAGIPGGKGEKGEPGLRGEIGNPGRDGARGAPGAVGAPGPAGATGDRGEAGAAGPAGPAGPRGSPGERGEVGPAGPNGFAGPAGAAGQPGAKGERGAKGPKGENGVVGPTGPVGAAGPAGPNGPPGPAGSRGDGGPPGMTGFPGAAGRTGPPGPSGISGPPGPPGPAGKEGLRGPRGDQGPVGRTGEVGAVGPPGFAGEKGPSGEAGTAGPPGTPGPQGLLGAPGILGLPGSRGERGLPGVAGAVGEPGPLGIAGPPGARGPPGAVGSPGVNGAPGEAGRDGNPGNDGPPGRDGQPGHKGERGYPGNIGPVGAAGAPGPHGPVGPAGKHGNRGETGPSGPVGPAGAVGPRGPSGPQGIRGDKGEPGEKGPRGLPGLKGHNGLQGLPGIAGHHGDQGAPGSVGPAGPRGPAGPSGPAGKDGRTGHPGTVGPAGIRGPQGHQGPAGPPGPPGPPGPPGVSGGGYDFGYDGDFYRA

fold increase in non-specific binding to collagen: 1.4 fold
Substance: GAIM scaffold variant with the Q128H mutation (Fc fusion)
